The text below walks through data of US20200230057A1, “Pharmaceutical Compositions, Methods for Preparation using Lipid Vesicle Particles of Defined Size, and Uses Thereof” (IMMUNOVACCINE TECHNOLOGIES INC., priority 2017, published 2020).

Where “and” joins values, the source holds several entries; their conditions need not be identical. Equal entries are not always repeated. Where two headings read alike, the source gives them in different places.

Data set [1] can be described thus: HPLC peptide recovery before and after freeze-drying.
Method: The composition prepared as described in Example 4, containing 14 neoantigens and the A16L T-helper peptide, was subjected to HPLC analysis to evaluate the peptide stability before and after freeze-drying.
Experimental Conditions: • IPQC Solutions: Dilute the IPQC solutions with Methanol and then with Mobile Phase A, e.g. as follows: • 100 mg In-Process Testing Solution • +450 μL Methanol, mix • +450 μL Mobile Phase A, mix • Mix by vortexing. Samples containing lipids will be slightly hazy. Dilution factor=10×. • Lyophilisates (for Release and Stability Testing): Solubilize the lyophilisate with Ultrapure lab water. Add 3-4 glass beads and vortex vigorously for 1 minute to assure complete homogenization. Dilute the solution with Methanol and subsequently with Mobile Phase A, e.g. as follows: • 100 mg In-Process Testing Solution • +450 μL Methanol, mix • +450 μL Mobile Phase A, mix • Mix by vortexing. The sample preparations will be slightly hazy. Dilution factor=20×.
The dried preparations were solubilized in water for HPLC analysis. T=0 is the day in which the samples were removed from the freeze-dryer. T=1M and T=3M are 1 month and 3 months after T=0, respectively, with the dried preparation having been stored at −20° C.
The test system of a further data set is C57BL/6NCrl mice. Description: IFN-gamma ELISPOT of splenocytes eight days after single vaccination. It counts as in vivo. The settings on record: oil-based composition with 14 neoantigens, single administration, response to the named neoantigen.
The mark [2] stands for this setting: After freeze dry T = 1M, stored at −20° C.
The mark [3] stands for this setting: After freeze dry T = 3M, stored at −20° C.

On to “PSKPSFQEFVDWENVSPELNSTDQPFL (Mut30) [Mut 30]”, for which the “Amount from non-validated HPLC assay” value in data set [1] (After freeze dry T = 0) is reported as 0.51 mg/mL; in data set [1] (setting [2]), 0.51 mg/mL; in data set [1] (setting [3]) it was 0.56 mg/mL; in data set [1] (Before freeze dry) it was 0.53 mg/mL.

“NIEGIDKLTQLKKPFLVNNKINKIENI (Mut28) [Mut 28]”: the “Amount from non-validated HPLC assay” value in data set [1] (After freeze dry T = 0) is 0.50 mg/mL; in data set [1] (setting [2]) it was 0.50 mg/mL; in data set [1] (setting [3]), 0.51 mg/mL; in data set [1] (Before freeze dry), 0.53 mg/mL.

For the sequence “CGTAFFINFIAIYHHASRAIPFGTMVA (Mut36) [Mut 36]”, the “Amount from non-validated HPLC assay” value in data set [1] (After freeze dry T = 0) stood at 0.19 mg/mL; in data set [1] (setting [2]), 0.25 mg/mL; in data set [1] (setting [3]), 0.31 mg/mL; in data set [1] (Before freeze dry), 0.47 mg/mL.

In the case of “TAVITPPTTTTKKARVSTPKPATPSTD (Mut24) [Mut 24]”, the “Amount from non-validated HPLC assay” value in data set [1] (After freeze dry T = 0) is 0.44 mg/mL; in data set [1] (setting [2]), 0.38 mg/mL; in data set [1] (setting [3]), 0.37 mg/mL; in data set [1] (Before freeze dry), 0.56 mg/mL.

As for “GFSQPLRRLVLHVVSAAQAERLARAEE (Mut50) [Mut 50]”, the “Amount from non-validated HPLC assay” value in data set [1] (After freeze dry T = 0) is on record as 0.42 mg/mL; in data set [1] (setting [2]), 0.44 mg/mL; in data set [1] (setting [3]) it was 0.46 mg/mL; in data set [1] (Before freeze dry), 0.42 mg/mL.

With “VVDRNPQFLDPVLAYLMKGLCEKPLAS (Mut17) [Mut 17]”, the “Amount from non-validated HPLC assay” value in data set [1] (After freeze dry T = 0) amounted to 0.27 mg/mL; in data set [1] (setting [2]), 0.23 mg/mL; in data set [1] (setting [3]) it was 0.26 mg/mL; in data set [1] (Before freeze dry) it was 0.51 mg/mL.

Regarding “IPSGTTILNCFHDVLSGKLSGGSPGVP (Mut29A) [Mut 29a]”, the “Amount from non-validated HPLC assay” value in data set [1] (After freeze dry T = 0) is on record as 0.38 mg/mL; in data set [1] (setting [2]), 0.34 mg/mL; in data set [1] (setting [3]), 0.35 mg/mL; in data set [1] (Before freeze dry), 0.54 mg/mL.

In the case of “STANYNTSHLNNDVWQIFENPVDWKEK (Mut25) [Mut 25]”, the “Improvement of immune response over comparative aqueous composition” value with C57BL/6NCrl mice is recorded as “about 5 fold”. Moreover, the “Amount from non-validated HPLC assay” value in data set [1] (After freeze dry T = 0) is given as 0.54 mg/mL; in data set [1] (setting [2]), 0.50 mg/mL; in data set [1] (setting [3]), 0.56 mg/mL; in data set [1] (Before freeze dry) it was 0.56 mg/mL.

As for “PKPDFSQLQRNILPSNPRVTRFHINWD (Mut22) [Mut 22]”, the “Amount from non-validated HPLC assay” value in data set [1] (After freeze dry T = 0) was 0.51 mg/mL; in data set [1] (setting [2]), 0.47 mg/mL; in data set [1] (setting [3]), 0.54 mg/mL; in data set [1] (Before freeze dry), 0.54 mg/mL.

As to “SFACLRQPSQGPTVGVKGGAAGGGYAQ (Mut29B) [Mut 29b]”, the “Amount from non-validated HPLC assay” value in data set [1] (After freeze dry T = 0) worked out at 0.48 mg/mL; in data set [1] (setting [2]) it was 0.44 mg/mL; in data set [1] (setting [3]), 0.48 mg/mL; in data set [1] (Before freeze dry) it was 0.56 mg/mL.

In the case of “SHCHWNDLAVIPAGVVHNWDFEPRKVS (Mut48) [Mut 48]”, the “Amount from non-validated HPLC assay” value in data set [1] (After freeze dry T = 0) was 0.38 mg/mL; in data set [1] (setting [2]) it was 0.37 mg/mL; in data set [1] (setting [3]) it was 0.41 mg/mL; in data set [1] (Before freeze dry), 0.47 mg/mL.

In the case of “ECRITSNFVIPSEYWVEEKEEKQKLIQ (Mut45) [Mut 45]”, the “Amount from non-validated HPLC assay” value in data set [1] (After freeze dry T = 0) is 0.44 mg/mL; in data set [1] (setting [2]), 0.42 mg/mL; in data set [1] (setting [3]) it was 0.46 mg/mL; in data set [1] (Before freeze dry), 0.47 mg/mL.

For the sequence FRRKAFLHWYTGEAMDEMEFTEAESNM [Mut 20], the “Amount from non-validated HPLC assay” value in data set [1] was 0.41 mg/mL and 0.47 mg/mL and 0.54 mg/mL and 0.42 mg/mL.

In the case of “EFKHIKAFDRTFANNPGPMVVFATPGM (Mut44) [Mut 44]”, in the data set on C57BL/6NCrl mice, the “Improvement of immune response over comparative aqueous composition” value is “about 3 fold”. For the same sequence, the “Amount from non-validated HPLC assay” value in data set [1] (After freeze dry T = 0) is 0.47 mg/mL; in data set [1] (setting [2]), 0.44 mg/mL; in data set [1] (setting [3]), 0.50 mg/mL; in data set [1] (Before freeze dry), 0.51 mg/mL.
